# From the DeepSol protein solubility set
# Experiment: soluble on expression in E. coli; label from the status in PepcDB or PDB records
row,Sequence,soluble on expression in E. coli
1,MNPKSSLADGAHIGNYQIVKTLGEGSFGKVKLAYHTTTGQKVALKIINKKVLAKSDMQGRIEREISYLRLLRHPHIIKLYDVIKSKDEIIMVIEYAGNELFDYIVQRDKMSEQEARRFFQQIISAVEYCHRHKIVHRDLKPENLLLDEHLNVKIADFGLSNIMTDGNFLKTSCGSPNYAAPEVISGKLYAGPEVDVWSCGVILYVMLCRRLPFDDESIPVLFKNISNGVYTLPKFLSPGAAGLIKRMLIVNPLNRISIHEIMQDDWFKVDLPEYLLEHHHHHH,soluble
2,SLRFYAACLASYNNGVLHGRWIDASSDTDEMQEEVSAMLRASRFPNVMVKCPNCEGRLELCTVCDGGSREVPSAEEWAIHDYDGLPSSLGEYPGLDKIAAFVELCEEHDMTGEDMAAIVSHFGSVEYAKEELGNNFVGVHESFRAYAEELADEMLSAHDIKADHPLSQYFDYEAYARDLRHSASAVELDEGVAVFCV,soluble
3,MIKNPKVLILTAHYGNGHVQVAKTLEQTFRQKGIEDVIVCDLFGESHPFITDITKYLYLKSYTIGKELYRLFYYGVEKIYDKKIASWYANFGRKRLKTLLQVEKPDIVINTFPIIAVPELKKQTGISIPVYNVLTDFCVHKIWIHREVDRYFVATDHVKELMVDIGVPAEQIVETGIPIRSSFELKVNPEIIYTKYQLCKNKKILLIVAGAHGVLGNVKELCQSFMSVPNLQVVVVCGKNEALKQDLLSLQKQNSDALKVFGYVENIDELFRVTSCMITKPGGITLSEAAALQVPVILYKPVPGQENENAMYFERKGAAVVIRDDSEVFAKTEALLQDDVKLLQMKEAMKSIYLPEPAGHIVDAILAENHAEPRHIPIKSPALAQSFTLEHHHHHH,not soluble
4,MPWQQQPIRYSADLEKPSPREQADIEKIMAKLLKNNERAYDKYKHGLRDAHAKSHAILRGELIVNEGLPPELAQGLFAEPRTYPVIARLSSTSGVRRSDKTRGVRGLGLKVLGVQGEKILPDDSSTNQDFVMVTHEDFLFADAHAYAGLGMITASLLARLSDQALWLGSGLLDLVSKAGIKLPDNLMVFVAPNRPILGLEFFSSAPFRHGDHVAKYRFAPASENVKALSGQLLPRNPAPEQHRDMIAEFFADQTAEFDFSAQLCTDPVAMPIEDAGKNWDKSISPYVSVAKIVFGPQNPYSALRRAYGDDVLAFNSWRGLAEHRPLGSINRLKKTVYESSADYRHRVNRIDRHEPVDISELPDLEHHHHHH,not soluble
5,MCLIVFAWRPGHAQPLIVAANRDEFYARPSLPLGQWPELPQIHAGRDLEAGGTWLGVGAEGRFAALTNIRNPHQPPARRSRGELVARFLAGDVPLDDYLRDVVGRSVEYAGFNLLLGNAEQLWHYNARDPQPQRLEPGVYGLSNAGLDTPWPKLLKARAALQEVLHDPQPQALLALLSDPQTAPFADLPDTGVGLATESLLSSVFIASPSYGTRASTALIVHADGSRHLLERSFGPYGGHLGEVELKVLEHHHHHH,not soluble
6,GMINTKEDFLLLIKQIEQKSGYKKPKAFGIARLDRGQLNKNKILQASFALINYEQNFGSAAIMLEAFMQRGVEIDFNASEFVQTLKLEDIDFALSCFKPFLEEDGHQNIDLLKIIKDKFKDDEFSFVCLFEDKEPLSVESIYLKLYLLSTKKVPLRSINLNGAFGLLSNVAWSDDKPIELEYLRANEMRLKMSNQYPKIDFVDKFPRFLAHIIPEDNTRILESSKVRMGASLAAGTTIMPGASYVNFNAGTTGACMVEGRISSSAIVGEGSDVGGGASILGVLSGTSGNAISVGKACLLGANSVTGIPLGDNCIVDAGIAVLEGTKFLLKDAEELAKLNPYFNFDKEIYKGLELKGLNGLHFRQDSISGAMIVALNKKAVKLNEALH,soluble
7,GTVQEIMIPAGKAGLVIGKGGETIKQLQERAGVKMILIQDGSQNTNVDKPLRIIGDPYKVQQACEMVMDILRERDQGGFGDRNEYGSRIGGGIDVPVPRHSVGVVIGRSGEMIKKIQNDAGVRIQFKQDDGTGPEKIAHIMGPPDRCEHAARIINDLLQSLRSG,soluble
8,MTSVGPGQPQKELIRAQNGTYEVTKPLATGTFGSIYKVKRESDGKFFAVKCEALNMKSSLLRQMSVVLASIHHPSPFFTNIEERGTVPNRFLFIVMPLYGENLYELMMNTNKDRKFSMATGLHLAEQTLAAIRDLHRNGFIHRDIKPSHFCIGREIDGQHHQVYLLDFGLCKRPRFVKKNDEAEEQMRKNAIHYRGVVKYASVHAHQGKNLGYKDDMESWWYMVLEFFLGALPWALLNKESEQDVLHLKRRITAPMVASVWRTTPETTAGFFDLLTIIREPKDVAEFVEYDRIADGIQKLFEKSKSNTQEPPDWDCMTDYKGPGYQQVLMIAPPEVGLKPEMDFGKSDPGAGGESGEQPKKEDVDKKKKKKKKSKKKGKSNNKTTSAEEQKGGKCAPPSRVRDERRETRDETVCEIETRSR,not soluble
9,TLVRVKKSAATLGIAIEGGANTRQPLPRIVTIQRGGSAHNCGQLKVGHVILEVNGLTLRGKEHREAARIIAEAFKTKDRDYIDFLVTEFN,soluble
10,MSLTYINKEKVIKNLSYAIYLLKKMNFTLIPEVGSNIAESLPFPKDFKDVAALTGRIIKNKLGGFYIVGDIEFGASEHIAKIILSASKFNPEIRACMNIKYDGGLIKLLKDKFAVSSFDRKEEPPNVSTMEWGTKIACEKFGGVPDIIYDRGGEGKEPMIRVLGRDAIEVVKKVEVIQKIYNTLEGHHHHHH,soluble
11,MAHHHHHHMGIVRSRLHKRKITGGKTKIHRKRMKAELGRLPANTRLGARRVSPVRARGGNFKIRALRLDTGNFAWASEAIAHRVRLLDVVYNATSNELVRTKTLVKNCIVAVDAAPFKRWYAKHYGIDLDADKKSTKAAVAAEKKGRKSAHAAADKYDVNKASPKLQREWTRRRRNHRVEKAIADQLREGRVLARITSRPGQSGRADGILLEGAELQFYLKRLEKKKK,soluble
12,MSLTYHIKTIGNNIDQIALDEIGEGFLVNQVSEAESDAFICRAQPFHDYEFSKALLAIGRAGAGFNNIPIEKCASKGIVVFNAPGGNANAVKELVLSMMIFGTRNLKPANKWLTGQKGDDNTIDGAVEHGKKAFSGSEISGKTLGVIGLGNIGSKVANDAQRLGMRVIGYDPYLSIEHAWNLSHHVKRVNDLAEIFEKADYITVHTPATDETTKMLNWKNLSKCKKGVILLNYARDEITDKEAVLKAIDEGIVRFFGTDFGSEKFYHHPQVFLTPHLGGSTAEASLNCTRMALDSVQTYLKTGEIINSVNFPRVLQELNTPYRVTLINKNVPNVVAQISLAVAAENINIANIVNRGQGDYAYTLLDLDEKDEGKLAALVSRFEAADNIIRVRLIENQSLEGHHHHHH,soluble
13,RTGFSVGAGVEYNFSRHWAIQSGLMITSKGATAEYEGYSPLSSSTDPISYKAKISPIYLDIPILAAFKIDISNHVKFAINIGPYLSVGMGGKYELTNTGGHKNESHNPFKSYSSTAEMKDKDALLKRFDIGVQGGIGFEIWKHYLINASFQHGFMDPIKGGTLYAGDTEKHYPIGGILTVGYRF,not soluble
14,MSLLLFQSLLRRGLLVAINFSPKVGEILECNFGNYPVSQNGPFSTTYYDGRIPPEMIKNRLVVVLNGKINGNAFIVVPLSTTRDHDKLKRGMHVEIASNVINDLQFFDQQIRWAKTDLVQQVSRNRLNRARTYRGYLNQCLPHELVADIQRAVIKSINAISLINEGHHHHHH,not soluble
15,MKVLILTVGTTREPLEVALAEHAPQGVVFLASQASHPVAAELVRDYGGSFRHHTLLLEDAESLMEAYQKALLALRKALEWEATAIVADLTGGTKPMAAGLVLALTGRGVVFSYVGGEARDPGTGRVLAGKERLRLLEDPTARLGLKEWAGFTRAWNALNLGMALAELESLLRRDLSPSEARFYGAMKGVVEGLMEWDRFRHREAWERLSVHLPLALAVAEAWGHGAKVRVLKGLEALLPHLKGIVEAGPKPTFLLLQDLLANAERRAALGRFDDALARLYRALELAVEADVHERLGFSLKDPRTWPEGFPEGLRERILKPRGLMDLLDAAFDLDLAFGEQGTLAQRLYGEKNRLQALLQRRHESILAHGTRPVGEEDYTALRDFLMRLDERLRPLPPWPRF,soluble
16,MAHHHHHHMPTSSGVDQAKLREVIRVLKSVGHVGMAESLEVEWGMKPNTAAHAKNAKKGRKSLPHKSRESSKARGNSFPSLSSIAVAPSPLQVTSQSRFVVTCIGDEEDLWSPDEDPADAKRCIAPLFDYGAGLLRDHYAEYAAHPVSFVSVHPYEKQQPPSNLPWRHFELKVFYEAGKTGSEEKKEFELVKGDLIGGRYHVDAPIDAATFSRTVRCYDEQTGQPVCLKIIRNSKTFLDQGLDELRALTCVNDAGDADACCVVRLLDYFYFREHLVLVTELLFDNLYEYARKLDIVERCAYFTLARLQRIVRQVLTALKLIHSVNLIHCDIKPENIAFKSVSDCDVKVLDLGSSCYMTDTLSSYVQSRSYRAPEVILGCKYGPAVDIWSLGATAAELATGTVLFNVESVPTMLASIASVCGPIPAEMLQEGRNTSLYVTQHGAFYDYEDEQLVFHFPSEPPDAAVLFGFDDHDYVDFVRLCLTLDAALRPSAAQLLDHPFLTKTYTD,not soluble
17,MTEKQFKLTVQDNTNIEVKVNFTDVDSKGIIHIFHGMAEHMERYDKLAHALSKHGFDVIRHNHRGHGINIDESTRGHYDDMKRVIGDAFEVAQTVRGNVDKPYIIIGHSMGSVIARLFVETYPQYVDGLILSGTGMYSLWKGLPTVKVLQLITKIYGAEKRVEWVNQLVSNSFNKKIRPLRTQSDWISSNPIEVDNFIKDPYSGFNVSNQLLYQTAYYMLHTSQLKNMKMLNHAMPILLVSGYDDPLGDYGKGILKLANIYRKAGIKNVKVNLYHHKRHEVLFEKDHDKIWEDLFKWLNQFYKK,not soluble
18,MLLENGWIVGVKQVLSPHFDLRPEGEMPSLLVIHSISLPPSEFGGPYIDQLFTGTLNADEHPYFASIVHLRVSAHCLIRRDGEIIQYVPFDKRAWHAGVSVFAGRERCNDFSIGIELEGTDVLPFTPVQYQRLTEISAVLFAHYPITVERVAGHSEIAPGRKTDPGLAFDWFFYQQNLAKLLV,not soluble
19,MGSDKIHHHHHHMDINTKNLKKNAFRVTKRRGITASRIRVPGGHLEAKFLSMIQNIAENYGDGSVHITSRQGFEIPGIKFEDMPKVNELLQPIIEGLNINQETALQGYSASGTRNITACVGNRVCPYGCYDTTSFAQRIEKAVFPHDLHFKIALTGCPNDCAKVRMHDFGIMGMTEPHYESDTCVSCGACVKVCKKKSVGALSAVNYKVVRRGEKCIGCGECVLKCPTGAWTRSEKTYYRLTLLGRTGKKNPRLGEDFIKWVDEDSIIKIILNTYDYVTKYIDPNAPGGKEHIGYIVDRTGFEEFKKWALKDVKLPSIAEVYTPIYWNGIKY,not soluble
20,MSLQTDDPMIVAHRAGTRDFPENTVLAITNAVAAGVDGMWLTVQVSSDGVPVLYRPSDLATLTDGAGPVNSKTVQQLQQLNAGWNFTTPGVEGHPYRQRATPIPTLEQAIGATPPDMTLFLDLKQTPPQPLVSAVAQVLTRTGAAGRSIVYSTNADITAAASRQEGLQVAESRDVTRQRLFNMALNHHCDPQPDPGKWAGFELHRDVTVTEEFTLGSGISAVNAELWDEASVDCFRSQSGMKVMGFAVKTVDDYRLAHKIGLDAVLVDSPLAAQQWRHEGHHHHHH,not soluble
